IC50 data for two substances are collected here from patent US20110212091A1.

Assay [1] deals with Recombinant human FGFR4-Fc (R&D Systems Cat # 685-FR) (human) (UniProt P22455). As to the kind of experiment: competition ELISA: FGFR4-Fc preincubated with soluble FGF1, binding to immobilized FGF2-heparin.
The target is the same in assay [2]. As to the kind of experiment: competition ELISA: FGFR4-Fc preincubated with soluble FGF2, binding to immobilized FGF2-heparin.

In the case of “FGF1 (soluble) (from UniProt P05230 16-155) (ligand)”, the IC50 in assay [1] was determined as 733 pM.

Consider “recombinant human FGF2 (R&D Systems, Cat# 233-FB) (from UniProt P09038 143-288) (ligand)”, for which the 50% inhibitory concentration (IC50) in assay [2] was found to be 691 pM.
